# Experimental data: US20110152500A1
# B1: Peptide 1 specific to VCAM1 (bipodal-peptide binder) (peptide)
# peptide: QARDCTGSWTWENGKWTWKGPSICPI
# Experiments:
# VCAM1-Trx (human) [1] = biological target: VCAM1-Trx (human) (UniProt P19320); test: SPR (Biacore), synthetic peptide
# VCAM1-Trx (human) [2] = biological target: VCAM1-Trx (human) (UniProt P19320); test: SPR (Biacore), immobilisation of VCAM1 not stated
binder,measurement,setting,value
B1,Kd,VCAM1-Trx (human) [1],318 nM
same,koff,VCAM1-Trx (human) [2],0.1 s⁻¹
same,kon,VCAM1-Trx (human) [2],330000 M⁻¹ s⁻¹
